The values that follow come from US20090191579A1 (PAIN THERAPEUTICS, published 2009).

This assay deals with MAP1B, endogenous, rat striatum (rat, UniProt P15205 2-2461, limits assumed). In words: co-immunoprecipitation (anti-Gα, then anti-MOR) from rat striatum, Western blot. (In western blotting, separated proteins are transferred to a membrane and probed.)
MAP1B, endogenous, rat striatum, sequence (P15205 2-2461 limits assumed): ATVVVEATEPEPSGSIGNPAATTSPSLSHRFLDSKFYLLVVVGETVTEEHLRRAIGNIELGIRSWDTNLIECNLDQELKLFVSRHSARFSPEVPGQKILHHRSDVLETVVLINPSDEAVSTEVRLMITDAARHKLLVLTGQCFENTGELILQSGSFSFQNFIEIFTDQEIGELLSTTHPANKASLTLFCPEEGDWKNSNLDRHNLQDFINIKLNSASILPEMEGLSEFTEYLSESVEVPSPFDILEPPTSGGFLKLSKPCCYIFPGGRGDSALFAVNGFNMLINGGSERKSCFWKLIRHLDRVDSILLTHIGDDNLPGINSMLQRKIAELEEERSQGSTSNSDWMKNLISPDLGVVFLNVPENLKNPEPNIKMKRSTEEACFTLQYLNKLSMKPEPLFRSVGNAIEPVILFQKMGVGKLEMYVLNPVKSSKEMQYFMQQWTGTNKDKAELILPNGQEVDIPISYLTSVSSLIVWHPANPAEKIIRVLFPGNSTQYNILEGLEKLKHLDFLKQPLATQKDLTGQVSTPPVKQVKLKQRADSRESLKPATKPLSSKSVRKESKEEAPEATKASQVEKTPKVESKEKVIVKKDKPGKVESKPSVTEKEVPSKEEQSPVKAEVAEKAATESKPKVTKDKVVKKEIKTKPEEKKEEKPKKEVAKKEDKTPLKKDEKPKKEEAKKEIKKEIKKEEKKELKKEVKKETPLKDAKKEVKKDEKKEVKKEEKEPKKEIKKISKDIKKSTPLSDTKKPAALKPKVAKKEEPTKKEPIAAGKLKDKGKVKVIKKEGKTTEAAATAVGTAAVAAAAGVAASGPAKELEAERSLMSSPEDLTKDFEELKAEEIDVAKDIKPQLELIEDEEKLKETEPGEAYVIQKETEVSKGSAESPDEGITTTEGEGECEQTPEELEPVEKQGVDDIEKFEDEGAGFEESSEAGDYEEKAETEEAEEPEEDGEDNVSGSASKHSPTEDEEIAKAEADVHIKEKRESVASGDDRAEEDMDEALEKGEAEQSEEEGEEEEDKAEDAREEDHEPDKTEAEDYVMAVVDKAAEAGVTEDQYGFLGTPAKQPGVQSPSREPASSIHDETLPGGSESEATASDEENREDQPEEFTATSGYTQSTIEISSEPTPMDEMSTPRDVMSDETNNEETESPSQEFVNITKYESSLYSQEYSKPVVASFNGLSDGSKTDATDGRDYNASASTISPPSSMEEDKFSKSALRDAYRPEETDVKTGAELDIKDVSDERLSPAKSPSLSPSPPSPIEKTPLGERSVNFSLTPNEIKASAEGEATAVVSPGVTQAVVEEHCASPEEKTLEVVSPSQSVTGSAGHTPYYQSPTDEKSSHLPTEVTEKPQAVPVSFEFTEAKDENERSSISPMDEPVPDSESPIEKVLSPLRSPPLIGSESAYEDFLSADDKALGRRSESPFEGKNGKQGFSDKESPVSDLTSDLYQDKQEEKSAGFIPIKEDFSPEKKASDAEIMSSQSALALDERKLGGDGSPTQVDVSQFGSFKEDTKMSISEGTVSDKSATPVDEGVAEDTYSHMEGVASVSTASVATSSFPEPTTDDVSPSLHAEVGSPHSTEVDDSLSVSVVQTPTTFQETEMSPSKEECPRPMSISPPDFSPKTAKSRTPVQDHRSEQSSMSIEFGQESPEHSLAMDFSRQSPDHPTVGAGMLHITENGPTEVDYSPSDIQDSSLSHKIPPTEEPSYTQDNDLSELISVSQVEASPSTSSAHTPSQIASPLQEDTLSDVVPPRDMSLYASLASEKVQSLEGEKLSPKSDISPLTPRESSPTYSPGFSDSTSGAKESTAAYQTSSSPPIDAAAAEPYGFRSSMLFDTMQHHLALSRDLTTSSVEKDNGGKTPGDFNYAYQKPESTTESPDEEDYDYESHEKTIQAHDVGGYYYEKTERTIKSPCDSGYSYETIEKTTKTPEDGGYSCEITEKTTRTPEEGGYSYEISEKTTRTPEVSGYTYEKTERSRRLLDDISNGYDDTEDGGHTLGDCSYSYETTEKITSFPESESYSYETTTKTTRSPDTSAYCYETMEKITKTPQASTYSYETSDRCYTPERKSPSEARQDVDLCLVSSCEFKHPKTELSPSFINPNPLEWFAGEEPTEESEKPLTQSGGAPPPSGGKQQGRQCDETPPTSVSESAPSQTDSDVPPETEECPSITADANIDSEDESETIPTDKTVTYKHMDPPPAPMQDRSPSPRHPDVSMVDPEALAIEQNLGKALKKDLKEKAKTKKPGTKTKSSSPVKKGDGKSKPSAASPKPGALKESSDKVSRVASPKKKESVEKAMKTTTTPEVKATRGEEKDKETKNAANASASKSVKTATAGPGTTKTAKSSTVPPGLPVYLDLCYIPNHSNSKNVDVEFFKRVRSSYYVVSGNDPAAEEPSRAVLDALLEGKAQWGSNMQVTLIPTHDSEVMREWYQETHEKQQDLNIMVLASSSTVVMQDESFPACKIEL

B1: mu opioid receptor (MOR), endogenous, rat striatum (receptor, UniProt P33535 1-398, looked up)
chain: MDSSTGPGNTSDCSDPLAQASCSPAPGSWLNLSHVDGNQSDPCGLNRTGLGGNDSLCPQTGSPSMVTAITIMALYSIVCVVGLFGNFLVMYVIVRYTKMKTATNIYIFNLALADALATSTLPFQSVNYLMGTWPFGTILCKIVISIDYYNMFTSIFTLCTMSVDRYIAVCHPVKALDFRTPRNAKIVNVCNWILSSAIGLPVMFMATTKYRQGSIDCTLTFSHPTWYWENLLKICVFIFAFIMPVLIITVCYGLMILRLKSVRMLSGSKEKDRNLRRITRMVLVVVAVFIVCWTPIHIYVIIKALITIPETTFQTVSWHFCIALGYTNSCLNPVLYAFLDENFKRCFREFCIPTSSTIEQQNSTRVRQNTREHPSTANTVDRTNHQLENLEAETAPLP
notes: Endogenous receptor immunoprecipitated with anti-MOR or detected with anti-MOR in anti-Gα immunoprecipitates; also called µ opioid receptor
Consider B1, for which the binding result is recorded as “no binding”.
